Test system: peptide library, one residue held at a place counted from the S/T acceptor
Experiment: relative phosphorylation of the sub-library (ratio to the mean residue at this position); higher = residue favoured
Conditions: human
Procedure, shortened: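 Relative sub-library phosphorylation is a ratio to the mean residue at the same position. Purified recombinant kinases were incubated under kinase-specific conditions with biotinylated degenerate peptide sub-libraries, each fixing one residue at one position around a central Ser/Thr, using 50 μM peptide and 50 μM ATP spiked with γ-32P-ATP for 90 min. Spots captured on streptavidin membranes were phosphorimaged and quantified by densitometry.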

PHKG2, construct: aa6-293, sequence (P15735 6-293, looked up): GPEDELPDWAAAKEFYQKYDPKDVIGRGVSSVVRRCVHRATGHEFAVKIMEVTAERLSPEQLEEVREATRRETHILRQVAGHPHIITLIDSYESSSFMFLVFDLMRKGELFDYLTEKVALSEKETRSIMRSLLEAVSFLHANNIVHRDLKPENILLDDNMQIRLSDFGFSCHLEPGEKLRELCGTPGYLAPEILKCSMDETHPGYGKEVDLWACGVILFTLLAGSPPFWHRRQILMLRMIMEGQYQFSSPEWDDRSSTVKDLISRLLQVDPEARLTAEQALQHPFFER
IRAK4, construct: aa104-end, sequence (Q9NWZ3 104-460, looked up): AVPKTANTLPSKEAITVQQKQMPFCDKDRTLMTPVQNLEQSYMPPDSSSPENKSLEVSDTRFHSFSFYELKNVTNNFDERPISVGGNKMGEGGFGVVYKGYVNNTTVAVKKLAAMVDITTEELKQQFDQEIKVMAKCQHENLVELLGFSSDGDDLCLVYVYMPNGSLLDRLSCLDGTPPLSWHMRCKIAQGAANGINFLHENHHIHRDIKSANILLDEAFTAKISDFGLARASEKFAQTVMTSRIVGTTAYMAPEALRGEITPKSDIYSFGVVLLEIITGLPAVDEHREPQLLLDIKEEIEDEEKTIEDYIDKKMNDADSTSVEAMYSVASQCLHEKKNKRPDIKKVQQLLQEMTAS
TAOK1, construct: aa1-356, sequence (Q7L7X3 1-356, looked up): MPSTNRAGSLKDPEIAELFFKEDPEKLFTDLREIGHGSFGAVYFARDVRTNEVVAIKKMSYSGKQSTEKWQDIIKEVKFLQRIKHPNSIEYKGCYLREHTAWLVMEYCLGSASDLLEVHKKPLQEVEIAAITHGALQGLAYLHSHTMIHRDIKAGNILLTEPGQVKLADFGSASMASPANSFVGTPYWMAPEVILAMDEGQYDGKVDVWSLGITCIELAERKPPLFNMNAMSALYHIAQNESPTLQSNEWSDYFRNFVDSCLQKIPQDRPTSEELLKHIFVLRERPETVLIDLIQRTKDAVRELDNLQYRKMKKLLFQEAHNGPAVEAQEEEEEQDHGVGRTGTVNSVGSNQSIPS

MAP3K3, construct: Full length (from UniProt Q99759)
relative phosphorylation
Conditions	at +1	at +2	at +3	at +4	at -1	at -2	at -3	at -4	at -5
A fixed	0.713	0.684	0.711	0.953	0.837	0.924	0.739	0.897	0.956
D fixed	0.304	0.643	0.767	0.758	1.28	1.65	1.39	1.38	1.12
E fixed	0.322	0.539	0.758	1.04	1.01	0.958	1.37	1.23	1.01
F fixed	1.32	0.884	1.38	0.916	0.902	1.09	0.946	0.955	1.11
G fixed	0.603	0.488	0.904	0.904	1.25	0.969	1.33	0.913	0.916
H fixed	0.779	2.55	1.03	0.859	1.24	0.984	0.918	0.982	1.13
I fixed	1.77	0.745	1.01	0.961	0.747	1.02	0.876	0.892	0.869
K fixed	0.516	1.42	1.19	1.7	1.18	0.591	0.998	1.1	1.15
L fixed	1.49	0.808	1.2	0.821	0.922	0.794	0.851	0.93	0.895
M fixed	1.74	1.05	1.11	0.953	0.943	1.01	0.902	1.05	0.944
N fixed	0.48	1.03	0.992	0.962	1.3	0.932	1.04	1.01	1.03
P fixed	0.34	0.255	0.361	0.982	0.482	0.728	0.723	0.736	0.744
Q fixed	0.686	0.898	0.75	1.07	0.834	0.838	0.77	0.741	0.842
R fixed	0.796	1.67	1.15	1.35	1.54	0.915	1.28	1.09	1.05
V fixed	1.43	0.841	0.861	0.734	0.684	1.13	0.971	0.916	0.925
W fixed	2.59	0.994	1.57	1.02	0.849	1.15	0.981	1.07	1.21
Y fixed	1.11	1.5	1.26	1.02	1.01	1.31	0.912	1.1	1.08
pThr fixed	1.12	1.39	0.824	1.37	1.23	2.17	2.37	1.82	2.48
pTyr fixed	0.626	0.691	1.06	0.783	1.56	2.52	1.7	1.02	1.63

PHKG2, construct: aa6-293 (from UniProt P15735)
relative phosphorylation
Conditions	at +1	at +2	at +3	at +4	at -1	at -2	at -3	at -4	at -5
A fixed	0.436	0.632	0.881	0.674	0.927	0.973	0.741	0.731	0.93
D fixed	0.155	0.214	0.222	0.297	0.609	0.353	0.242	0.326	0.364
E fixed	0.198	0.157	0.301	0.246	0.389	0.466	0.3	0.561	0.38
F fixed	2.96	1.28	1.04	1.21	1.07	0.891	0.368	0.797	1.1
G fixed	0.369	0.579	0.828	0.774	0.977	0.985	0.578	0.833	0.768
H fixed	0.681	1.43	1.12	0.916	0.871	0.867	0.899	1.15	0.999
I fixed	1.63	0.694	0.929	0.743	0.772	0.711	0.562	1.19	1.16
K fixed	0.664	2.43	1.79	1.95	1.84	1.5	3.76	1.84	1.73
L fixed	1.72	0.642	0.976	1.06	0.888	0.853	0.454	0.991	1.26
M fixed	1.77	0.757	0.974	0.885	0.987	1.12	0.576	1.13	0.958
N fixed	0.403	0.694	0.792	0.753	1.15	1.13	0.538	0.849	0.761
P fixed	0.107	0.267	0.616	0.556	1.11	0.528	0.422	0.587	0.706
Q fixed	0.593	0.601	0.851	1.02	0.917	1.72	0.77	0.878	0.776
R fixed	0.997	3.32	2.61	2.71	1.84	2.48	5.1	1.98	1.85
V fixed	0.896	0.574	0.856	0.719	0.9	0.778	0.477	0.922	1.15
W fixed	2.03	1.56	1.2	1.48	0.751	0.861	0.556	0.996	0.926
Y fixed	1.4	1.16	1.01	1.01	0.998	0.795	0.663	1.23	1.19
pThr fixed	0.353	0.302	0.378	0.285	0.558	0.0668	0.449	0.505	0.678
pTyr fixed	0.404	0.369	0.462	0.307	0.755	0.637	0.517	0.746	0.63

IRAK4, construct: aa104-end (from UniProt Q9NWZ3)
relative phosphorylation
Conditions	at +1	at +2	at +3	at +4	at -1	at -2	at -3	at -4	at -5
A fixed	1	0.837	0.672	0.783	0.78	1.05	0.954	1.13	1.15
D fixed	0.163	0.147	0.24	0.423	0.303	0.404	0.555	0.603	0.602
E fixed	0.314	0.164	0.217	0.405	0.247	0.405	0.507	0.619	0.554
F fixed	1.05	1.27	1.4	0.77	0.886	0.903	0.885	0.97	0.895
G fixed	1.13	0.45	0.698	0.935	0.636	1.31	1.36	1.22	1.29
H fixed	1.07	1.13	1.49	1.26	1.28	1.06	1.05	1.01	1.15
I fixed	0.92	1.42	1.33	0.897	0.774	0.842	0.755	0.742	0.89
K fixed	1.94	1.43	1.56	1.89	2.3	1.23	1.53	1.46	1.52
L fixed	0.83	1.05	1.24	0.85	0.877	1.23	0.935	0.852	0.774
M fixed	1.2	1.16	1.15	1.01	1	1.57	1.03	0.907	0.837
N fixed	0.705	0.669	0.651	1.04	1	1.14	1.1	1.14	0.997
P fixed	0.139	0.406	0.252	0.961	0.666	1.04	1.11	1.12	1.22
Q fixed	1.34	0.862	0.919	0.983	0.973	0.979	0.964	0.864	0.866
R fixed	2.58	1.99	1.76	1.83	2.31	1.34	1.65	1.5	1.59
V fixed	1.08	1.47	1.18	0.778	0.942	0.811	0.775	0.891	0.812
W fixed	0.778	1	1.11	1.25	0.755	0.814	0.968	1.01	0.881
Y fixed	0.755	1.53	1.12	0.942	1.26	0.878	0.864	0.957	0.966
pThr fixed	0.276	0.274	0.341	0.33	0.352	0.678	0.866	0.752	0.87
pTyr fixed	0.203	0.177	0.441	0.323	0.276	0.545	0.65	0.539	0.763

TAOK1, construct: aa1-356 (from UniProt Q7L7X3)
relative phosphorylation
Conditions	at +1	at +2	at +3	at +4	at -1	at -2	at -3	at -4	at -5
A fixed	0.401	0.732	0.799	0.651	0.775	1.05	0.861	0.969	0.986
D fixed	0.16	0.494	0.336	0.409	0.645	0.589	0.515	0.911	0.93
E fixed	0.122	0.282	0.296	0.421	0.345	0.42	0.59	0.969	0.816
F fixed	1.53	0.505	0.853	0.835	1.07	1.74	0.817	0.95	0.933
G fixed	0.352	0.705	1.06	0.773	1.47	1.42	1.73	1.29	1.18
H fixed	0.855	1.11	0.901	1.17	1.52	0.583	0.99	1.04	1.08
I fixed	1.83	0.612	0.692	0.786	0.381	0.577	0.533	0.696	0.757
K fixed	0.504	2.83	2.32	1.79	1.15	1.02	2.24	1.29	1.36
L fixed	1.85	0.54	0.809	0.727	1.08	0.629	0.554	0.728	0.773
M fixed	2.05	0.721	0.686	0.861	1.45	0.92	0.661	0.873	0.88
N fixed	0.398	1.46	0.87	0.805	1.31	0.9	0.875	0.999	0.982
P fixed	0.319	0.777	1.13	0.711	0.47	0.858	0.988	1.01	1.02
Q fixed	0.461	0.837	0.762	0.759	0.746	0.742	0.879	0.937	0.844
R fixed	0.559	3.26	2.89	2.44	1.44	1.08	1.81	1.39	1.24
V fixed	1.21	0.723	0.602	0.635	0.419	0.658	0.505	0.765	0.821
W fixed	2.88	0.622	1.08	1.76	0.996	1.13	1.06	1.05	1.21
Y fixed	1.52	0.794	0.916	1.46	1.73	2.68	1.39	1.13	1.18
pThr fixed	0.365	0.32	0.327	0.386	0.306	0.469	0.667	0.78	0.881
pTyr fixed	0.295	0.337	0.45	0.432	1.56	0.733	0.622	0.777	0.963

From the supplement of paper PMC9876800
